{"source": "patent US20150284743A1", "about": "“METHODS FOR THE ENZYMATIC PRODUCTION OF ISOPRENE FROM ISOPRENOL” (GLOBAL BIOENERGIES, priority 2012, published 2015)", "molecules": {"B1": {"name": "Rhizobium leguminosarum 4-methyl-5-(2-hydroxyethyl)thiazole kinase (hydroxyethylthiazole kinase, EC 2.7.1.50) (Rhizobium johnstonii 3841) (protein)", "chain": "MQTRTTPGAMLKAMREKPPLVQCITNYVAMNIAANVLLAAGASPAMVHAAEEAGEFAAIASALTINIGTLSTQWIDGMQAAAKAATSAGKPWVLDPVAHYATAFRRNAVAELLALKPTIIRGNASEIIALAGGESRGQGVDSRDPVEQAEGSARWLAERQRAVVAVTGAVDFVTDGERAVRIEGGSALMPQVTALGCSLTCLVGAFAATAPEDIFGATVAALSTFAIAGEEAALGAAGPGSFSWRFLDALAALDAETLDARARISAA"}, "B2": {"name": "Escherichia coli 4-methyl-5-(2-hydroxyethyl)thiazole kinase (hydroxyethylthiazole kinase, EC 2.7.1.50) (Escherichia coli K-12) (protein)", "chain": "MQVDLLGSAQSAHALHLFHQHSPLVHCMTNDVVQTFTANTLLALGASPAMVIETEEASQFAAIASALLINVGTLTQPRAQAMRAAVEQAKSSQTPWTLDPVAVGALDYRRHFCHELLSFKPAAIRGNASEIMALAGIANGGRGVDTTDAAANAIPAAQTLARETGAIVVVTGEMDYVTDGHRIIGIHGGDPLMTKVVGTGCALSAVVAACCALPGDTLENVASACHWMKQAGERAVARSEGPGSFVPHFLDALWQLTQEVQA"}, "B3": {"name": "Eucalyptus globulus monoterpene synthase (UniProt Q0PCI4), SEQ ID NO: 6 (Eucalyptus globulus) (protein)", "chain": "ASTQISDPQEGRRSANYQPSVWTYNYLQSIVAGEGRQSRREVEQQKEKVQILEEEVRGALNDEKAETFTIFATVDDIQRLGLGDHFEEDISNALRRCVSKGAVFMSLQKSLHGTALGFRLLRQHGYEVSQDVFKIFLDESGSFVKTLGGDVQGVLSLYEASHLAFEEEDILHKARSFAIKHLENLNSDVDKDLQDQVKHELELPLHRRMPLLEARRSIEAYSRREYTNPQILELALTDFNVSQSTLQRDLQEMLGWWNNTGLAKRLSFARDRLIECFFWAVGIAHEPSLSICRKAVTKAFALILVLDDVYDVFGTLEELELFTEAVRRWDLNAVEDLPVYMKLCYLALYNSVNEMAYETLKEKGENVIPYLAKAWYDLCKAFLQEAKWSNSRIIPGVEEYLNNGWVSSSGSVMLIHAYFLASPSIRKEELESLEHYHDLLRLPSLIFRLTNDIASSSAELERGETTNSIRCFMQEKGISELEARECVKEEIDTAWKKMNKYMVDRSTFNQSFVRMTYNLARMAHCVYQDGDAIGSPDDLSWNRVHSLIIKPISPAA"}, "B4": {"name": "monoterpene synthase from E. globulus: purified monoterpene synthase of Eucalyptus globulus (UniProt Q0PCI4, SEQ ID NO: 6) (protein, listed as Eucalyptus globulus)", "chain": "MALRLLFTPHLPVLSSRRANGRVRCSASTQISDPQEGRRSANYQPSVWTYNYLQSIVAGEGRQSRREVEQQKEKVQILEEEVRGALNDEKAETFTIFATVDDIQRLGLGDHFEEDISNALRRCVSKGAVFMSLQKSLHGTALGFRLLRQHGYEVSQDVFKIFLDESGSFVKTLGGDVQGVLSLYEASHLAFEEEDILHKARSFAIKHLENLNSDVDKDLQDQVKHELELPLHRRMPLLEARRSIEAYSRREYTNPQILELALTDFNVSQSTLQRDLQEMLGWWNNTGLAKRLSFARDRLIECFFWAVGIAHEPSLSICRKAVTKAFALILVLDDVYDVFGTLEELELFTEAVRRWDLNAVEDLPVYMKLCYLALYNSVNEMAYETLKEKGENVIPYLAKAWYDLCKAFLQEAKWSNSRIIPGVEEYLNNGWVSSSGSVMLIHAYFLASPSIRKEELESLEHYHDLLRLPSLIFRLTNDIASSSAELERGETTNSIRCFMQEKGISELEARECVKEEIDTAWKKMNKYMVDRSTFNQSFVRMTYNLARMAHCVYQDGDAIGSPDDLSWNRVHSLIIKPISPAA"}, "B5": {"name": "Bacillus subtilis 4-methyl-5-(2-hydroxyethyl)thiazole kinase (hydroxyethylthiazole kinase, EC 2.7.1.50) (Bacillus subtilis subsp. subtilis str. 168) (protein)", "chain": "MDAQSAAKCLTAVRRHSPLVHSITNNVVTNFTANGLLALGASPVMAYAKEEVADMAKIAGALVLNIGTLSKESVEAMIIAGKSANEHGVPVILDPVGAGATPFRTESARDIIREVRLAAIRGNAAEIAHTVGVTDWLIKGVDAGEGGGDIIRLAQQAAQKLNTVIAITGEVDVIADTSHVYTLHNGHKLLTKVTGAGCLLTSVVGAFCAVEENPLFAAIAAISSYGVAAQLAAQQTADKGPGSFQIELLNKLSTVTEQDVQEWATIERVTVS", "notes": "homotrimer"}}, "key": {"[1]": {"substrate": "C=C(C)CCO", "experiment": "Isoprenol phosphorylation, pyruvate kinase/lactate dehydrogenase coupled assay (ADP release), R. leguminosarum kinase", "assay_type": "biochemical, Rhizobium leguminosarum", "conditions": "other: isoprenol 0-40 mM, 5 mM ATP, pH 7.5, 37° C., enzyme 0.025 mg/ml", "procedure": "(§1) The genes encoding the enzymes of interest were cloned in the pET 25b(+) vector (Novagen). Nucleotide sequences encoding a chloroplast transit peptide in plant terpene synthases were removed, resulting in DNA sequences encoding the mature proteins only. […] Competent E. coli BL21(DE3) cells (Novagen) were transformed with this vector by heat shock. The transformed cells were grown with shaking (160 rpm) on ZYM-5052 auto-induction medium (Studier FW, Prot. Exp. Pur. 41, (2005), 207-234) for 6 h at 37° C. and protein expression was continued at 28° C. or 20° C. overnight (approximately 16 h). The cells were collected by centrifugation at 4° C., 10,000 rpm for 20 min and the pellets were frozen at −80° C.\n(§2) The pellets from 200 ml of culture cells were thawed on ice and resuspended in 5 ml of Na2HPO4 pH 8 containing 300 mM NaCl, 5 mM MgCl2 and 1 mM DTT. Twenty microliters of lysonase (Novagen) were added. Cells were incubated 10 minutes at room temperature and then returned to ice for 20 minutes. Cell lysis was completed by sonication for 3×15 seconds. The bacterial extracts were then clarified by centrifugation at 4° C., 10,000 rpm for 20 min. The clarified bacterial lysates were loaded on PROTINO-1000 Ni-TED column (Macherey-Nagel) allowing adsorption of 6-His tagged proteins. Columns were washed and the enzymes of interest were eluted with 4 ml of 50 mM Na2HPO4 pH 8 containing 300 mM NaCl, 5 mM MgCl2, 1 mM DTT, 250 mM imidazole. […] Protein concentrations were quantified according to the Bradford method. […]\n(§3) The release of ADP that is associated with isoprenol phosphorylation was quantified using the pyruvate kinase/lactate dehydrogenase coupled assay (FIG. 4). The purified 4-methyl-5-(2-hydroxyethyl)thiazole kinases from Escherichia coli, Bacillus subtilis, Rhizobium leguminosarum were thus evaluated for their ability to phosphorylate isoprenol. […]\n(§4) Each assay was started by the addition of the enzyme at a final concentration 0.025 mg/ml and the decrease of NADH was monitored by following its absorbance at 340 nm. […]"}, "[2]": {"substrate": "CC(C)=CCO", "experiment": "Prenol phosphorylation, pyruvate kinase/lactate dehydrogenase coupled assay (ADP release), R. leguminosarum kinase", "assay_type": "biochemical, Rhizobium leguminosarum", "conditions": "other: prenol, 5 mM ATP, pH 7.5, 37° C., enzyme 0.5 mg/ml", "procedure": "as §1, §2\n(§5) The purified 4-methyl-5-(2-hydroxyethyl) thiazole kinases from Escherichia coli, Bacillus subtilis, Rhizobium leguminosarum were evaluated for their ability to phosphorylate prenol. The release of ADP associated to prenol phosphorylation was quantified using the pyruvate kinase/lactate dehydrogenase coupled assay (FIG. 4). […]\n(§6) Each assay was started by the addition of the enzyme at a final concentration 0.5 mg/ml and the decrease of NADH was monitored by following its absorbance at 340 nm. […]"}, "[3]": {"substrate": "CC(C)=CCO", "experiment": "Prenol phosphorylation, pyruvate kinase/lactate dehydrogenase coupled assay (ADP release), E. coli kinase", "assay_type": "biochemical, Escherichia coli", "conditions": "other: prenol, 5 mM ATP, pH 7.5, 37° C., enzyme 0.5 mg/ml", "procedure": "as §1, §2, §5, §6"}, "[4]": {"substrate": "C=C(C)CCO", "experiment": "Isoprenol phosphorylation, pyruvate kinase/lactate dehydrogenase coupled assay (ADP release), E. coli kinase", "assay_type": "biochemical, Escherichia coli", "conditions": "other: isoprenol 0-40 mM, 5 mM ATP, pH 7.5, 37° C., enzyme 0.025 mg/ml", "procedure": "as §1, §2, §3, §4"}, "[5]": {"substrate": "CC(C)=CCOP(=O)(O)O", "experiment": "purified protein, by the assay type", "conditions": "other: prenyl monophosphate 0-150 mM, pH 7.5, 20 mM MgCl2, 37° C., 18 h, enzyme 2 mg/ml"}, "[6]": {"substrate": "C=C(C)CCOP(=O)(O)O", "experiment": "Isoprene production from isoprenyl monophosphate, GC/FID", "assay_type": "biochemical, Eucalyptus globulus", "conditions": "other: isoprenyl monophosphate 0-150 mM, pH 7.5, 20 mM MgCl2, 37° C., 18 h, enzyme 4 mg/ml", "procedure": "as §1\nThe pellets from 200 ml of culture cells were thawed on ice and resuspended in 5 ml of Na2HPO4 pH 8 containing 300 mM NaCl, 5 mM MgCl2 and 1 mM DTT. […] Protein concentrations were quantified according to the Bradford method. […]\n2.5 mg of the terpene synthase was added to 0.5 ml of reaction mixture. […] Gas chromatography-mass spectrometry (GC-MS) was then used to confirm the identity of the product detected by gas chromatography with flame ionization. The samples were analyzed on a Varian 3400Cx gas chromatograph equipped with Varian Saturn 3 mass selective detector. […]\nKinetic parameters of isoprene production were evaluated in the following conditions: […]"}, "[7]": {"experiment": "Screening for isoprene production from isoprenyl monophosphate with purified terpene synthases", "assay_type": "biochemical", "conditions": "10 mM isoprenyl monophosphate, 37° C., 17 h, GC-FID / GC-MS of headspace", "procedure": "The enzymatic assays were carried out under the following conditions at 37° C.:\n10 mM isoprenyl monophosphate (Sigma)\n2.5 mg of the terpene synthase was added to 0.5 ml of reaction mixture. An enzyme-free control reaction was carried out in parallel. Assays were incubated at 37° C. for 17 h in a 1.5 ml sealed glass vial (Interchim) with shaking. One ml of the headspace phase was then collected and injected into a gas chromatograph Varian 430-GC chromatograph equipped with a flame ionization detector (FID). Nitrogen was used as carrier gas with a flow rate of 30 mL/min. Volatile compounds were chromatographically separated on Rtx-1 column (Restek) using an isothermal mode at 100° C. The enzymatic reaction product was identified by direct comparison with isoprene standard (Sigma). Under these GC conditions, the retention time for isoprene was 3.47 min. […] Gas chromatography-mass spectrometry (GC-MS) was then used to confirm the identity of the product detected by gas chromatography with flame ionization. The samples were analyzed on a Varian 3400Cx gas chromatograph equipped with Varian Saturn 3 mass selective detector. A mass spectrum of isoprene obtained by enzymatic conversion of isoprenyl monophosphate was similar to the one of commercial isoprene (FIG. 8)."}, "[8]": {"substrate": "C=C(C)CCO", "experiment": "Isoprenol phosphorylation, pyruvate kinase/lactate dehydrogenase coupled assay (ADP release), B. subtilis kinase", "assay_type": "biochemical, Bacillus subtilis", "conditions": "other: isoprenol 0-40 mM, 5 mM ATP, pH 7.5, 37° C., enzyme 0.025 mg/ml", "procedure": "as §1, §2, §3, §4"}, "[9]": {"substrate": "CC(C)=CCO", "experiment": "Prenol phosphorylation, pyruvate kinase/lactate dehydrogenase coupled assay (ADP release), B. subtilis kinase", "assay_type": "biochemical, Bacillus subtilis", "conditions": "other: prenol, 5 mM ATP, pH 7.5, 37° C., enzyme 0.5 mg/ml", "procedure": "as §1, §2, §5, §6"}}}
{"molecule": "B1", "values": [{"measurement": "Km", "setting": "[1]", "result": 10, "unit": "mM"}, {"measurement": "kcat", "setting": "[1]", "result": 0.8, "unit": "s⁻¹"}, {"measurement": "kcat/Km", "setting": "[1]", "result": 80, "unit": "M⁻¹ s⁻¹"}, {"measurement": "Km", "setting": "[2]", "result": 10, "unit": "mM"}, {"measurement": "kcat", "setting": "[2]", "result": 0.01, "unit": "s⁻¹"}, {"measurement": "kcat/Km", "setting": "[2]", "result": 1, "unit": "M⁻¹ s⁻¹"}]}
{"molecule": "B2", "values": [{"measurement": "Km", "setting": "[3]", "result": 3, "unit": "mM"}, {"measurement": "kcat", "setting": "[3]", "result": 0.05, "unit": "s⁻¹"}, {"measurement": "kcat/Km", "setting": "[3]", "result": 16, "unit": "M⁻¹ s⁻¹"}, {"measurement": "Km", "setting": "[4]", "result": 7.5, "unit": "mM"}, {"measurement": "kcat", "setting": "[4]", "result": 1, "unit": "s⁻¹"}, {"measurement": "kcat/Km", "setting": "[4]", "result": 130, "unit": "M⁻¹ s⁻¹"}]}
{"molecule": "B3", "values": [{"measurement": "Km", "setting": "[5]", "result": 60, "unit": "mM"}, {"measurement": "kcat", "setting": "[5]", "result": 0.00056, "unit": "s⁻¹"}, {"measurement": "Km", "setting": "[6]", "result": 40, "unit": "mM"}, {"measurement": "kcat", "setting": "[6]", "result": "1.6e-05", "unit": "s⁻¹"}]}
{"molecule": "B4", "values": [{"measurement": "Isoprene production from isoprenyl monophosphate", "setting": "[7]", "result": "isoprene produced"}]}
{"molecule": "B5", "values": [{"measurement": "Km", "setting": "[8]", "result": 3, "unit": "mM"}, {"measurement": "kcat", "setting": "[8]", "result": 0.03, "unit": "s⁻¹"}, {"measurement": "kcat/Km", "setting": "[8]", "result": 10, "unit": "M⁻¹ s⁻¹"}, {"measurement": "Km", "setting": "[9]", "result": 3, "unit": "mM"}, {"measurement": "kcat", "setting": "[9]", "result": 0.006, "unit": "s⁻¹"}, {"measurement": "kcat/Km", "setting": "[9]", "result": 2, "unit": "M⁻¹ s⁻¹"}]}
